This sample holds only a part of the variants without activity.
B1: TPR 5TU (parent)
chain: GGAUCUUCUCGAUCUAACAAAAAAGACAAAUCUGCCACAAAGCUUGAGAGCAUCUUCGGAUGCAGAGGCGGCAGCCUUCGGUGGCGCGAUAGCGCCAACGUUCUCAACUAUGACACGCAAAACGCGUGCUCCGUUGAAUGGAGUUUAUCAUG

Variants of: B1
Assay: polymerase ribozyme fitness, log enrichment relative to wild type (log ratio); higher = more active; in vitro selection for triplet polymerase activity
Outline: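 Libraries of mutants in each subunit of a heterodimeric triplet polymerase ribozyme were generated by PCR and transcribed. In triplicate, each went through one in vitro selection round: annealing with biotinylated primer, partner subunit and triplets; frozen incubation at −7 °C; gel excision of extended constructs; streptavidin-bead capture; RT-PCR. Fitness, taken from Illumina sequencing of input and output libraries, is the logarithm of a genotype's enrichment over wild-type enrichment, averaged across replicates with inverse-variance weights. The logarithm is base 2, and genotypes needed ≥10 input reads and ≥1 read per output to be kept.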

Row | Variant | polymerase ribozyme fitness (log ratio)
1 | GGAUCUUCUCGAUCUACCAAAAAAGACAAAUCUGCCACAAAGCUUGAGAGCAUCUUCGGAUGCAGAGGCGGCAGCCUUCGGUGGCGCGAUAGCGCCAACGUUCUCAACUAUGACACGCAAAACGCGUGCUGCGUUGAAUGGAGUUUAUCAUG [A17C C131G] | -3.09
2 | GGAUCUUCUCGAUCUACCAAAAAAGACAAAUCUGCCACAAAGCUUGAGAGCAUCUUCGGAUGCAGAGGCGGCAGCCUUCGGUGGCGCGAUAGCGCCAACGUUCUCAACUAUGACACGCAAAACGCGUGCUCCGUUGAAUGUAGUUUAUCAUG [A17C G141U] | 1.61
3 | GGAUCUUCUCGAUCUACCAAAAAAGACAAAUCUGCCACAAAGCUUGAGAGCAUCUUUGGAUGCAGAGGCGGCAGCCUUCGGUGGCGCGAUAGAGCCAACGGUCUCAACUAUGACACGCAAAACGCGUGCUCCGUUGAAUGGAGAUUAUCAUG [A17C C57U C93A U101G U144A] | -2.86
4 | GGAUCUUCUCGAUCUACCAAAAAAGACAAAUCUGCCACAAAGCUUGAGAUCAUCUACCGAUGCAGAGGCGGCAGCCUUCGGUGUCGCGAUAGCGCCAACGUUCUCAACUAUGACACGCAAAACGCGUGCUCCGUUGAAUGGAGUUUAUCAUG [A17C G50U U56A G58C G84U] | -1.22
5 | GGAUCUUCUCGAUCUACCAAAAAAGACAAAUCUGUCACAAAGCUUGAGAGCAUCUUCGGAUGCAGAGGCGGCAGCCUUCGGUGGCACGAUAGCGCCAACGUUCUCAACUAUGACACGCAAAGCGCGUGCUCCGUUGAAUGGAGUUUAUCAUG [A17C C35U G86A A122G] | -1.01
6 | GGAUCUUCUCGAUCUACCAAAAAACACAAAUCUGCCACAAUGCUUGAGAGAAUCUUCGGAUGCAGAGGCGGCAGCCUUCGGUGCCGCGAUAGCUCCAACGUUCUCAACUGUGACACGCAAAACGCGUGCUCCGUUGAAUGGAGCUGAUCAUG [A17C G25C A41U C51A G84C G94U A110G U144C U146G] | ≤ -4.2
7 | GGAUCUUCUCGAUCUACCAAAAAAGACAAAUCUGCCACAAAGCUUGAGAGCAUCUUCGGAUGCAGAGGCGGCAGCCUUCGUUGGAGCGAUAGCGUCAACGUUCUGAACUAUGACACGCAAAACGCGUGCUCCGUUGAAUGGAGUUUAUCAUG [A17C G81U C85A C95U C105G] | -1.64
8 | GGAUCUUCUCGAUCUACCAAAAAAGACAAAUCUGCCACAAAGCUUGAGAGCAUCUUCUGAUGCAGAGGCGGCAGCCUUCGGUGGCGCGAUAGCGCCAACGUUCUCAACUAUGACACGCAAAACGCGUACUCCGUUGAUUGGAGUUUAUCAUG [A17C G58U G128A A138U] | -4.13
9 | GGAUCUUCUCGAUCUACCAAAAAAGACAAAUCUUCCACAAAGCUUGAGAGUAUCUUAGGAUGCAGAGGCGGCAGCCUUCGGUGGCACGAUAGCGCCAACGUUCUCAACUAUGACACGCAAAACGCGUGCUCCGUUGAAUGGAGUUUAUCAUG [A17C G34U C51U C57A G86A] | -4.06
10 | GGAUCUUCUCGAUCUACCAAAAAAGACAAAUCUGCCACAAAGCUUGAGAGCAUCUUCGGAUGCAGAGGCGGCAGCCUUCGGUGGCGCGAUAGCGUUAACGUUCUCAACUAUGACACGCAAAACGCGUGCUCCGUUAAAUGGAGCUUUUCAUG [A17C C95U C96U G136A U144C A147U] | -0.941
11 | GGAUCUUCUCGAUCUACCAAAAAAGACAAACCUGCCACAAAGCUUGCGAGCAUCAUCGGAUGCAGAGGCGGCAGCUUUCGGUGUCGCGAUAGCGCCAACGUUCUCAACUAUGACACGCAAAACGCGUGCUCCGUUGAAUGGAGUUUAUCAUG [A17C U31C A47C U55A C76U G84U] | -3.49
12 | GGAUCUUCUCGAUCUACCAAAAAAGACAAAUCUACCACAAAGCUUGAGAGCAUCUUCGGAUGCAGAGGCGGCAGCCUUCGGUGGCGCGAUAGCGCGAACGUUCUCAACUAUGACACGCAAGCCGCGUGCUCCGCUGAAUGGAGUUUAUCAUG [A17C G34A C96G A121G A122C U134C] | -1.47
13 | GGAUCUUCUCGAUCUACGAAAAAAGUCAAAUCUGCCACAACGCUGGAGUGCAUCAUCGGAUACAGAGGCGGCAGCCUUCGGUGGCGCGAUAUCGCCAACGUUCUCAAUUAUGACACGUAAAACGCGUGCUCCGUUGAAUGGAGUUUAUCAUG [A17C C18G A26U A41C U45G A49U U55A G62A G92U C108U C118U] | ≤ -4.2
14 | GGAUCUUCUCGAUCUACCAAAAAAGACAAAUCCGCCACAAAGCUUGAGAGCAUCUUCGGAUGCAGAGGCGGCAGCCUUCGGUAGCGCGAUAGCGCCAACGUUCUCAACUAUGACACGCAAAACGCGUGCUCCGUUGAAUGUAGUUUAUCAUG [A17C U33C G83A G141U] | ≤ -4.2
15 | GGAUCUUCUCGAUCUACCAAAAAAGACAAAUCUGCCACAGAGCUUGAGAGCAUCUUCGGAUGCAGAGGCGGCAGCCUUCGGUGGCGCGAUAGCGCCAACGUUCUCAACUAUGACACGCAAAACGCGUGCUCCGUUGAAUGGAGUUUAUCAUG [A17C A40G] | -1.63
16 | GGAUCUUCUCGAUCUACCAAAAAAGACAAAACUGCCACAAAGCUUGAGAGCAUCUUCGGAUGCAGAGGCGGCAGCCUUCGGUGGCGCGAUAUCGCCAUCGUUCUCAACUAUGACACGCAAAACGCGUGCUCCGUUGAAUGAAGUUUAUCAUG [A17C U31A G92U A98U G141A] | 0.253
17 | GGAUCUUCUCGAUCUACCAAAAAAGACAAAUCUGCCAUAACGCUUGAGAGCAUCUUCGGCUGCAGAGGCGGCAGCCUUCGGUGGCGCGAUAGCGCCAACGUUCUCAACUAUGACACGCAAAACGCGUGCUCCGUUGAAUGGAGUUUAUCAUG [A17C C38U A41C A60C] | -1.39
18 | GGAUCUUCUCGAUCUACCAAAAAAGACAAAUCUGCCACAAAGCUUGAGAGCAUCUUCGGAUGCAGAGACGGCAGCCUUCGGUAGCGCGAUAGCGCCAACGUUCUCAACUAUGACAAGCAAAACGCGUACUCCGUUGAAUGGAGUUUAUCAUG [A17C G68A G83A C116A G128A] | ≤ -4.2
19 | GGAUCUUCUCGAUCUACCAAAAAAGACAAAUCUGCCACAAAGCUUGAGAGCAUCUUCGGAUGCAGAGGCGGCAGCCUUCGGUGGUGCGAUAGCGCCAACGUUCUCAACUAUGACACGCAAAACGCGUGCUCCGUUGAAUGGAGUUUAUCAUG [A17C C85U] | 0.349

From the RNAGym collection of RNA variant scans (doi:10.1073/pnas.2313332121)
